This test addresses T1, HLA-DR1 (Homo sapiens, UniProt P01903+P01911, A100R/D57E/F55L/F60I/F76Y/I96L/L162R/M171V/P40L/Q125E/R42F/V115G/Y59C).
T1 construct: made in house; host or cells: Sf9 insect cells
Put plainly: Competition of synthetic peptides against 125I-labeled HA 307-319 for binding to empty HLA-DR1 (Ki).

Ends that are not written are not given here.

In the case of “KMRMATPLLMQALP (MRMATPLLMQALPM) [Ii 107-120, invariant chain peptide named in b65]”, for the setting “competition against HA peptide, empty DR1, first approximation”, the “relative binding affinity to DR1 among competitor peptides” value was “highest affinity of all the competitor peptides measured”.

For the sequence KMRMATPLLMQALPM [Ii 106-120], the Ki (read-out: Ki vs HA 307-319, concentration inhibiting 50% of 125I-labeled HA 307-319 binding, 10 nM labeled peptide, 10 nM empty HLA-DR1 from Sf9 insect cells, pH 7.2, 37° C., 85 hours) is below 10 nM.

The Ki is a dissociation constant, usually derived from enzyme kinetics or from competition with a known ligand.

The record behind these values is patent US6509033B1, “Immunomodulatory peptides” (President and Fellows of Harvard College, priority 1992, dated 2003).
